Source: patent US20180044434A1 (PUBLIC UNIVERSITY CORPORATION YOKOHAMA CITY UNIVERSITY, published 2018)

Target: T1, full-length recombinant human PAD4 (human, UniProt Q9UM07 1-663)
T1 construct: Full-length recombinant; also called peptidylarginine deiminase 4
Assay: ELISA, immobilized human PAD4

T1 sequence (Q9UM07 whole entry): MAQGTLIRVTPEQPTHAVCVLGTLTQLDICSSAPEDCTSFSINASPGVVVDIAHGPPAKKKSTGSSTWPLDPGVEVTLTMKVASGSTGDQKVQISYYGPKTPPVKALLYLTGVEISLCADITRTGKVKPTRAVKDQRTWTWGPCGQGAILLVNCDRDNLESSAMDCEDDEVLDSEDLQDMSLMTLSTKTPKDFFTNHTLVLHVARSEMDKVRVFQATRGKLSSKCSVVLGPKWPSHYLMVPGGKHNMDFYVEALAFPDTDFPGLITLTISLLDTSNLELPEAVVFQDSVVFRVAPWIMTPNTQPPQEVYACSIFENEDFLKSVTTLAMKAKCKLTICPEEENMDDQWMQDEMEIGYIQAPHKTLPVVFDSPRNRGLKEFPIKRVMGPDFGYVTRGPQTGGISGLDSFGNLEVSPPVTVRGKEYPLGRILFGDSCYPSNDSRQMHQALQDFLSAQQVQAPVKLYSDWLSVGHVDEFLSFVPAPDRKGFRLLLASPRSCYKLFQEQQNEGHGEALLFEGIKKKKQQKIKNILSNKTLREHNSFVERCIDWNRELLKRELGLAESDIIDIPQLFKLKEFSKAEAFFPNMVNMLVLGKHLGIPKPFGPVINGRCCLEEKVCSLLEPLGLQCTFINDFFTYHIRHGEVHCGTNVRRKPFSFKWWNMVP

Binder | O.D. 490/630 at 0.0078125 µg/mL | O.D. 490/630 at 0.015625 µg/mL | O.D. 490/630 at 0.03125 µg/mL | O.D. 490/630 at 0.0625 µg/mL | O.D. 490/630 at 0.125 µg/mL | O.D. 490/630 at 0.25 µg/mL | O.D. 490/630 at 0.5 µg/mL | O.D. 490/630 at 1 µg/mL
humanized anti-PAD4 antibody derived from H7, VH H4.00 / VL L4.15 (antibody, IgG1, V domains shown, IgG1 kappa; also called H7 H4.00/L4.15) VH: not shown VL: SYELTQPPSVSVSPGQTARITCSGGSGRYYYGWYQQKPGQAPVTVIYSSTHRPSGIPERFSGSNSGNTTTLTISGVQAEDEADYYCGTADSSSYVFGGGTKLTVLG | 1.31 | 1.71 | 1.89 | 1.92 | 1.87 | 1.89 | 1.87 | 1.86
humanized anti-PAD4 antibody derived from G8, VH H4.00 / VL L4.17 (antibody, human IgG1, kappa, V domains shown, IgG1 kappa; also called G8 H4.00/L4.17) VH: not shown VL: SYELTQPPSVSVSPGQTARITCSGGNRNYYYGWYQQKPGQAPVTVIYANDKRPSGIPERFSGSTSGNTTTLTISGVQAEDEADYYCGTADTGKYVFGGGTKLTVLG | 1.31 | 1.62 | 1.84 | 1.89 | 1.82 | 1.81 | 1.8 | 1.8
humanized anti-PAD4 antibody derived from H7, VH H4.32 / VL L4.15 (antibody, IgG1, V domains shown, IgG1 kappa; also called H7 H4.32/L4.15) VH: EVQLLESGGGLVQPGGSLRLSCAASGFTFSTYAMGWVRQAPGKGLEFVAAIRNDGSWTGYGAAVKGRVTISRDNSKNTVYLQMNSLRAEDTAVYYCAKYTGSSGGSIGAWGQGTLVTVSS VL: SYELTQPPSVSVSPGQTARITCSGGSGRYYYGWYQQKPGQAPVTVIYSSTHRPSGIPERFSGSNSGNTTTLTISGVQAEDEADYYCGTADSSSYVFGGGTKLTVLG | 1.34 | 1.77 | 1.89 | 1.94 | 1.87 | 1.84 | 1.78 | 1.79
humanized anti-PAD4 antibody derived from H7, VH H4.00 / VL L4.17 (antibody, IgG1, V domains shown, IgG1 kappa; also called H7 H4.00/L4.17) VH: not shown VL: SYELTQPPSVSVSPGQTARITCSGGSGRYYYGWYQQKPGQAPVTVIYSSTHRPSGIPERFSGSTSGNTTTLTISGVQAEDEADYYCGTADSSSYVFGGGTKLTVLG | 1.3 | 1.71 | 1.85 | 1.91 | 1.87 | 1.86 | 1.85 | 1.86
humanized anti-PAD4 antibody derived from H7, VH H4.15 / VL L4.06 (antibody, IgG1, V domains shown, IgG1 kappa; also called H7 H4.15/L4.06) VH: EVQLLESGGGLVQPGGSLRLSCAASGFTFSTYAMGWVRQAPGKGLEFVSAIRNDGSWTGYGAAVKGRFTISRDNSKNTVYLQMNSLRAEDTAVYYCAKYTGSSGGSIGAWGQGTLVTVSS VL: SYELTQPPSVSVSPGQTARITCSGGSGRYYYGWYQQKPGQAPVTVIYSSTHRPSGIPERFSGSYSGNTTTLTISGVQAEDEADYYCGTADSSSYVFGGGTKLTVLG | 1.22 | 1.68 | 1.82 | 1.83 | 1.84 | 1.82 | 1.82 | 1.84
humanized anti-PAD4 antibody derived from H7, VH H4.15 / VL L4.00 (antibody, IgG1, V domains shown, IgG1 kappa; also called H7 H4.15/L4.00) VH: EVQLLESGGGLVQPGGSLRLSCAASGFTFSTYAMGWVRQAPGKGLEFVSAIRNDGSWTGYGAAVKGRFTISRDNSKNTVYLQMNSLRAEDTAVYYCAKYTGSSGGSIGAWGQGTLVTVSS VL: SYELTQPPSVSVSPGQTARITCSGGSGRYYYGWYQQKPGQAPVLVIYSSTHRPSGIPERFSGSSSGTTVTLTISGVQAEDEADYYCGTADSSSYVFGGGTKLTVLG | 0.429 | 0.764 | 1.23 | 1.71 | 1.84 | 1.9 | 1.88 | 1.86
humanized anti-PAD4 antibody derived from H7, VH H4.00 / VL L4.06 (antibody, IgG1, V domains shown, IgG1 kappa; also called H7 H4.00/L4.06) VH: not shown VL: SYELTQPPSVSVSPGQTARITCSGGSGRYYYGWYQQKPGQAPVTVIYSSTHRPSGIPERFSGSYSGNTTTLTISGVQAEDEADYYCGTADSSSYVFGGGTKLTVLG | 1.26 | 1.75 | 1.9 | 2 | 1.87 | 1.89 | 1.86 | 1.86
humanized anti-PAD4 antibody derived from H7, VH H4.32 / VL L4.06 (antibody, IgG1, V domains shown, IgG1 kappa; also called H7 H4.32/L4.06) VH: EVQLLESGGGLVQPGGSLRLSCAASGFTFSTYAMGWVRQAPGKGLEFVAAIRNDGSWTGYGAAVKGRVTISRDNSKNTVYLQMNSLRAEDTAVYYCAKYTGSSGGSIGAWGQGTLVTVSS VL: SYELTQPPSVSVSPGQTARITCSGGSGRYYYGWYQQKPGQAPVTVIYSSTHRPSGIPERFSGSYSGNTTTLTISGVQAEDEADYYCGTADSSSYVFGGGTKLTVLG | 1.22 | 1.64 | 1.9 | 1.94 | 1.82 | 1.86 | 1.81 | 1.77
humanized anti-PAD4 antibody derived from H7, VH H4.32 / VL L4.00 (antibody, IgG1, V domains shown, IgG1 kappa; also called H7 H4.32/L4.00) VH: EVQLLESGGGLVQPGGSLRLSCAASGFTFSTYAMGWVRQAPGKGLEFVAAIRNDGSWTGYGAAVKGRVTISRDNSKNTVYLQMNSLRAEDTAVYYCAKYTGSSGGSIGAWGQGTLVTVSS VL: SYELTQPPSVSVSPGQTARITCSGGSGRYYYGWYQQKPGQAPVLVIYSSTHRPSGIPERFSGSSSGTTVTLTISGVQAEDEADYYCGTADSSSYVFGGGTKLTVLG | 0.389 | 0.713 | 1.17 | 1.65 | 1.77 | 1.85 | 1.81 | 1.82
humanized anti-PAD4 antibody derived from G8, VH H4.00 / VL L4.06 (antibody, human IgG1, kappa, V domains shown, IgG1 kappa; also called G8 H4.00/L4.06) VH: not shown VL: SYELTQPPSVSVSPGQTARITCSGGNRNYYYGWYQQKPGQAPVTVIYANDKRPSGIPERFSGSYSGNTTTLTISGVQAEDEADYYCGTADTGKYVFGGGTKLTVLG | 1.22 | 1.64 | 1.83 | 1.95 | 1.85 | 1.81 | 1.83 | 1.8
humanized anti-PAD4 antibody derived from H7, VH H4.15 / VL L4.17 (antibody, IgG1, V domains shown, IgG1 kappa; also called H7 H4.15/L4.17) VH: EVQLLESGGGLVQPGGSLRLSCAASGFTFSTYAMGWVRQAPGKGLEFVSAIRNDGSWTGYGAAVKGRFTISRDNSKNTVYLQMNSLRAEDTAVYYCAKYTGSSGGSIGAWGQGTLVTVSS VL: SYELTQPPSVSVSPGQTARITCSGGSGRYYYGWYQQKPGQAPVTVIYSSTHRPSGIPERFSGSTSGNTTTLTISGVQAEDEADYYCGTADSSSYVFGGGTKLTVLG | 1.31 | 1.63 | 1.81 | 1.9 | 1.81 | 1.81 | 1.82 | 1.77
humanized anti-PAD4 antibody derived from H7, VH H4.00 / VL L4.00 (antibody, IgG1, V domains shown, IgG1 kappa; also called H7 H4.00/L4.00) VH: not shown VL: SYELTQPPSVSVSPGQTARITCSGGSGRYYYGWYQQKPGQAPVLVIYSSTHRPSGIPERFSGSSSGTTVTLTISGVQAEDEADYYCGTADSSSYVFGGGTKLTVLG | 0.441 | 0.752 | 1.21 | 1.72 | 1.88 | 1.89 | 1.91 | 1.92
humanized anti-PAD4 antibody derived from H7, VH H4.32 / VL L4.17 (antibody, IgG1, V domains shown, IgG1 kappa; also called H7 H4.32/L4.17) VH: EVQLLESGGGLVQPGGSLRLSCAASGFTFSTYAMGWVRQAPGKGLEFVAAIRNDGSWTGYGAAVKGRVTISRDNSKNTVYLQMNSLRAEDTAVYYCAKYTGSSGGSIGAWGQGTLVTVSS VL: SYELTQPPSVSVSPGQTARITCSGGSGRYYYGWYQQKPGQAPVTVIYSSTHRPSGIPERFSGSTSGNTTTLTISGVQAEDEADYYCGTADSSSYVFGGGTKLTVLG | 1.28 | 1.77 | 1.95 | 1.98 | 1.86 | 1.86 | 1.81 | 1.79
humanized anti-PAD4 antibody derived from H7, VH H4.15 / VL L4.15 (antibody, IgG1, V domains shown, IgG1 kappa; also called H7 H4.15/L4.15) VH: EVQLLESGGGLVQPGGSLRLSCAASGFTFSTYAMGWVRQAPGKGLEFVSAIRNDGSWTGYGAAVKGRFTISRDNSKNTVYLQMNSLRAEDTAVYYCAKYTGSSGGSIGAWGQGTLVTVSS VL: SYELTQPPSVSVSPGQTARITCSGGSGRYYYGWYQQKPGQAPVTVIYSSTHRPSGIPERFSGSNSGNTTTLTISGVQAEDEADYYCGTADSSSYVFGGGTKLTVLG | 1.25 | 1.65 | 1.82 | 1.87 | 1.83 | 1.84 | 1.83 | 1.82
humanized anti-PAD4 antibody derived from G8, VH H4.15 / VL L4.00 (antibody, human IgG1, kappa, V domains shown, IgG1 kappa; also called G8 H4.15/L4.00) VH: EVQLLESGGGLVQPGGSLRLSCAASGFTFSTYAMGWVRQAPGKGLEFVSAIRNDGSWTGYGAAVKGRFTISRDNSKNTVYLQMNSLRAEDTAVYYCAKYTGSSGGSIGAWGQGTLVTVSS VL: SYELTQPPSVSVSPGQTARITCSGGNRNYYYGWYQQKPGQAPVLVIYANDKRPSGIPERFSGSSSGTTVTLTISGVQAEDEADYYCGTADTGKYVFGGGTKLTVLG | 0.707 | 1.11 | 1.52 | 1.84 | 1.87 | 1.87 | 1.86 | 1.85
humanized anti-PAD4 antibody derived from G8, VH H4.15 / VL L4.06 (antibody, human IgG1, kappa, V domains shown, IgG1 kappa; also called G8 H4.15/L4.06) VH: EVQLLESGGGLVQPGGSLRLSCAASGFTFSTYAMGWVRQAPGKGLEFVSAIRNDGSWTGYGAAVKGRFTISRDNSKNTVYLQMNSLRAEDTAVYYCAKYTGSSGGSIGAWGQGTLVTVSS VL: SYELTQPPSVSVSPGQTARITCSGGNRNYYYGWYQQKPGQAPVTVIYANDKRPSGIPERFSGSYSGNTTTLTISGVQAEDEADYYCGTADTGKYVFGGGTKLTVLG | 1.31 | 1.68 | 1.9 | 1.92 | 1.91 | 1.87 | 1.79 | 1.77
